Reference: doi:10.1101/2023.04.10.536218

Target: major capsid protein VP1 of sheep polyomavirus (ShPyV) (sheep polyomavirus (ShPyV))
Experiment: crystal structure

Substance: major capsid protein VP1 of sheep polyomavirus (ShPyV) (natural protein)
- stoichiometry N: 5
